Target: wild-type pyruvate kinase isoform M2 (PKM2^WT) (human) (UniProt P14618)
Assay: SEC; gel filtration on Superdex 200 10/300 GL, in the absence of FBP; low protein concentration (less than 0.2 mg/mL); similar protein concentrations and conditions for all proteins; oxalate added in a further run (Fig. S1F)

Chain of wild-type pyruvate kinase isoform M2 (PKM2^WT), P14618 1-531 (enzyme; other documents disagree on this pair) (P14618 whole entry, canonical isoform): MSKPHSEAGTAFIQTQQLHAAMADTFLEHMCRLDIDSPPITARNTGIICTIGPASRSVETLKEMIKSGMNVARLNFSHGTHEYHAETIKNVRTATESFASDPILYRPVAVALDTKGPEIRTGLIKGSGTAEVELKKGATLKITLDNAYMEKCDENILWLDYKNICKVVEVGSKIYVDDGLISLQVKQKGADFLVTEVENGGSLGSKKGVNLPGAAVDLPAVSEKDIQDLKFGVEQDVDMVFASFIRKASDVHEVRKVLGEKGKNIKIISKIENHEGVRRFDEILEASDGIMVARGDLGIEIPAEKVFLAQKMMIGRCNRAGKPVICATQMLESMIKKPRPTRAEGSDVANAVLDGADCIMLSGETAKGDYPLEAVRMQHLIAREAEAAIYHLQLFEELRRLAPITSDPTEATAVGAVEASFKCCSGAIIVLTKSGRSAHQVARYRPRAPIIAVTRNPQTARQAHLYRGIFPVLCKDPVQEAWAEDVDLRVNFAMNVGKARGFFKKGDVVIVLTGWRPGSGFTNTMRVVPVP

stoichiometry N: 2
Substance: wild-type pyruvate kinase isoform M2 (PKM2^WT), P14618 1-531 (enzyme; other documents disagree on this pair)

— publication PMC4383751
